Results as given in the Human Domainome abundance scans (Beltran et al. 2025).
± gives the uncertainty stated by the source.

B1: Receptor-interacting serine/threonine-protein kinase 2, residues 438 to 518; numbered along this chain, O43353 (parent)
chain: QWIQSKREDIVNQMTEACLNQSLDALLSRDLIMKEDYELVSTKPTRTSKVRQLLDTTDIQGEEFAKVIVQKLKDNKQMGLQ

Variants of: B1
Assay: abundance fitness (aPCA) (normalised: wild type 0, dead -1); higher = more abundant; growth selection in yeast, the domain comes from the species named
Details: Homo sapiens

Abundance fitness, by site and new letter:
M33: L 0.059 ± 0.061 | Y -0.439 ± 0.23 | P -0.039 ± 0.054 | C 0.115 ± 0.097 | S 0.195 ± 0.073 | R 0.141 ± 0.053 | I -0.075 ± 0.12 | W -0.646 ± 0.094 | N -0.132 ± 0.36 | T 0.247 ± 0.095 | A 0.199 ± 0.071 | K -0.088 ± 0.17 | E 0.067 ± 0.11 | F -0.555 ± 0.15 | Q 0.145 ± 0.11
R29: N -0.044 ± 0.21 | P -0.433 ± 0.079 | E -0.152 ± 0.12 | T -0.438 ± 0.11 | M -0.076 ± 0.1 | Q -0.059 ± 0.091 | K 0.002 ± 0.17 | H -0.345 ± 0.17 | Y -0.321 ± 0.14 | G -0.238 ± 0.062 | C -0.403 ± 0.22 | S -0.297 ± 0.07 | F 0.192 ± 0.27 | W -0.575 ± 0.16 | V -0.66 ± 0.14 | L 0.01 ± 0.07 | I -0.88 ± 0.22
L26: Q -0.31 ± 0.061 | W -1.02 ± 0.17 | S -0.419 ± 0.069 | P -0.374 ± 0.068 | V -0.649 ± 0.069 | H -0.289 ± 0.18 | G -0.572 ± 0.081 | C -0.618 ± 0.11 | E -0.364 ± 0.11 | D -0.833 ± 0.34 | K -0.374 ± 0.15 | F -1.03 ± 0.25 | T -0.657 ± 0.13 | A -0.313 ± 0.059 | R -0.425 ± 0.05 | Y -0.879 ± 0.3 | M -0.662 ± 0.13
I32: V -0.373 ± 0.085 | H -0.527 ± 0.13 | E -0.731 ± 0.2 | T -0.594 ± 0.12 | K -0.94 ± 0.42 | A -0.686 ± 0.11 | W -0.442 ± 0.14 | S -0.593 ± 0.078 | L -0.029 ± 0.055 | Q -0.273 ± 0.14 | R -0.592 ± 0.071 | F -0.842 ± 0.23 | G -0.707 ± 0.094 | M -0.183 ± 0.11 | C -0.679 ± 0.14 | P -0.437 ± 0.071
L27: C -0.668 ± 0.16 | A -0.251 ± 0.088 | K -0.041 ± 0.13 | G -0.609 ± 0.071 | P -0.328 ± 0.07 | N -0.395 ± 0.17 | R -0.157 ± 0.068 | Q -0.293 ± 0.22 | T -0.355 ± 0.12 | M 0.128 ± 0.24 | V -0.067 ± 0.051 | F -0.353 ± 0.19 | S -0.104 ± 0.075 | D -0.198 ± 0.13 | H -0.284 ± 0.18 | Y -0.069 ± 0.13
L31: H -0.448 ± 0.39 | W -0.949 ± 0.16 | D -0.456 ± 0.2 | Y -0.601 ± 0.24 | R -0.732 ± 0.087 | F -0.74 ± 0.18 | K -0.574 ± 0.2 | V -0.588 ± 0.13 | I -0.973 ± 0.45 | S -0.608 ± 0.048 | M -0.204 ± 0.13 | G -0.798 ± 0.087 | N -0.782 ± 0.35 | A -0.615 ± 0.089 | P -0.588 ± 0.063
D24: M -0.719 ± 0.33 | R -0.169 ± 0.057 | T -0.28 ± 0.045 | L -0.569 ± 0.11 | Y -0.221 ± 0.22 | P -0.68 ± 0.099 | H -0.574 ± 0.16 | V -0.434 ± 0.1 | W -0.881 ± 0.21 | K -0.328 ± 0.19 | S -0.19 ± 0.077
A25: F -0.052 ± 0.16 | R -0.592 ± 0.063 | I -0.339 ± 0.14 | T -0.174 ± 0.075 | W -0.969 ± 0.17 | D -0.088 ± 0.1 | H -0.225 ± 0.16 | N -0.343 ± 0.062 | G -0.451 ± 0.067 | E 0.183 ± 0.072 | S -0.233 ± 0.057 | P -0.737 ± 0.082 | V -0.133 ± 0.092 | L -0.303 ± 0.063 | K -0.732 ± 0.15 | Q -0.43 ± 0.096
D30: H 0.045 ± 0.11 | A -0.106 ± 0.072 | G 0.122 ± 0.055 | W -1.12 ± 0.24 | S -0.166 ± 0.087 | N -0.401 ± 0.18 | P -1.08 ± 0.24 | Y -0.84 ± 0.21 | K 0.06 ± 0.11 | M -0.814 ± 0.16 | C -0.332 ± 0.15 | E -0.03 ± 0.089 | Q -0.073 ± 0.077 | V -0.657 ± 0.12 | R -0.036 ± 0.049 | L -0.615 ± 0.081
S28: R -0.082 ± 0.062 | W -0.527 ± 0.14 | M -0.259 ± 0.11 | T -0.165 ± 0.12 | I -0.475 ± 0.2 | K 0.095 ± 0.093 | L -0.204 ± 0.065 | Y -0.26 ± 0.1 | F -0.665 ± 0.29 | G -0.363 ± 0.064 | E 0.03 ± 0.14 | D -0.36 ± 0.16 | C -0.283 ± 0.13 | P -0.847 ± 0.18 | Q 0.041 ± 0.11 | H -0.25 ± 0.12 | V -0.175 ± 0.089
K34: H -0.528 ± 0.17 | A -0.094 ± 0.078 | C -0.199 ± 0.22 | M -0.312 ± 0.16 | E 0.024 ± 0.11 | D -0.448 ± 0.24 | F -0.191 ± 0.17 | G -0.357 ± 0.091 | P 0.024 ± 0.066 | R -0.124 ± 0.063 | L -0.079 ± 0.097
